What was measured:
[1] = target: T1, CD63 (endogenous, on WT 293F cells) (UniProt P08962 2-238, limits assumed); experiment: flow cytometry of CP05-Cy5 on WT 293F cells against 293F/CD63-/- cells
T1 construct: whole, on cells; Compared with the 293F/CD63-/- knockout line as the negative control; also called WT CD63
T1 sequence (looked up): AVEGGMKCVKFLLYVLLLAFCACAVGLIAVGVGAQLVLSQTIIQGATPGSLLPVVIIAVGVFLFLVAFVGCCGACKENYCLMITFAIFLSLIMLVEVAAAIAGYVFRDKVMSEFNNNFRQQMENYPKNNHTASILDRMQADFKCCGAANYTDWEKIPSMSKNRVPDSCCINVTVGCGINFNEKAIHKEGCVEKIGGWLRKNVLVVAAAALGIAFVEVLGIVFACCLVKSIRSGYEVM
Description: (§1) For measurement of surface CD63 abundance and Cy5-CP05 peptide binding, cells were washed in HBSS, released from tissue culture plates using trypsin/EDTA solution, and resuspended at a concentration of 1×10^7 cells per ml in HBSS. Cell suspensions were maintained on ice, diluted to a concentration of 1×10^6 cells per ml, incubated with either (i) fluorescently labeled anti-CD63 antibody (catalog no.: 353006; BioLegend) or (ii) CY5-labeled CP05 peptide (NH2-[…](K/Cy5)-amide; Vivitide; molecular weight=[…]). Following the binding reaction, cells were washed five times in PBS and then examined by flow cytometry on a Beckman CytoFlex flow cytometer set at the appropriate excitation and emission wavelengths. The relative brightness was determined for thousands of individual cells in each cell line using Beckman CytExpert software (version 2.3.1.22) to calculate average brightness and CV as well as to generate scatter plots and histograms.
(§2) To determine whether these mutations led to a drop in the cell surface expression of CD63, cell lines were interrogated: the 293F/CD63^{-/-} cell line, the parental 293F cell line, and the F/YA24 cell line by flow cytometry, using a commercially available fluorescently tagged monoclonal anti-CD63 antibody. […]

[2] = target: T2, CD63/Y235A (on F/YA24 cells) (UniProt P08962 2-238, limits assumed); experiment: flow cytometry of CP05-Cy5 on F/YA24 cells against 293F and 293F/CD63-/- cells
T2 construct: whole, on cells; F/YA24 cells also carry the endogenous CD63 of 293F cells; also called mutant form of CD63
T2 sequence (looked up): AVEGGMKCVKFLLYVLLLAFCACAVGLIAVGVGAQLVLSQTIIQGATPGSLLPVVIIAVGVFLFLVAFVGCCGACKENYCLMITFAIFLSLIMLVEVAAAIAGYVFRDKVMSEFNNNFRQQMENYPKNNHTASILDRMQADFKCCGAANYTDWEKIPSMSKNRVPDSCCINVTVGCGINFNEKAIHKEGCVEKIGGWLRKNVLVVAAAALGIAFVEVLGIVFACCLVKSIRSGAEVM
Description: as §1, §2

B1: Cy5-labeled CP05 peptide (NH2-CRHSQMTVTSRL(K/Cy5)-amide) (peptide)
peptide: H-CRHSQMTVTSRLK(Cy5)-NH2
notes: Synthetic peptide (Vivitide); the labeled peptide used in the assay has one more Lys(Cy5) and a C-terminal amide; also called CP05-Cy5; Cy5-CP05 peptide
- binding result [1]: no binding (tested: 0.34 µM and 3.4 µM CP05-Cy5)
- binding result [2]: no binding (tested: 0.34 µM and 3.4 µM CP05-Cy5)
